# Test results reported in patent publication US20240192215A1 (E AND S HEALTHCARE, published 2024).
# T1: Peptide_004 (human)
# T1 construct: 15-mer on microarray; not native form, recombinant insert region
# T1 peptide: AADVHSQHHHHHHHH
# T2: Peptide_005 (human)
# T2 construct: 15-mer on microarray; not native form, recombinant insert region
# T2 peptide: ADVHSQHHHHHHHHV
# T3: Peptide_012 (human)
# T3 construct: 15-mer on microarray; not native form, includes recombinant insert region
# T3 peptide: HHHHHHHVKQIESKT
# T4: Peptide_013 (human)
# T4 construct: 15-mer on microarray; not native form, includes recombinant insert region
# T4 peptide: HHHHHHVKQIESKTA
# T5: Peptide_014 (human)
# T5 construct: 15-mer on microarray; not native form, includes recombinant insert region
# T5 peptide: HHHHHVKQIESKTAF
# T6: Peptide_015 (human)
# T6 construct: 15-mer on microarray; not native form, includes recombinant insert region
# T6 peptide: HHHHVKQIESKTAFQ
# T7: Peptide_020 (human)
# T7 construct: 15-mer of hTrx1 on microarray
# T7 peptide: KQIESKTAFQEALDA
# T8: Peptide_021 (human)
# T8 construct: 15-mer of hTrx1 on microarray
# T8 peptide: QIESKTAFQEALDAA
# T9: Peptide_023 (human)
# T9 construct: 15-mer of hTrx1 on microarray
# T9 peptide: ESKTAFQEALDAAGD
# T10: Peptide_024 (human)
# T10 construct: 15-mer of hTrx1 on microarray
# T10 peptide: SKTAFQEALDAAGDK
# T11: Peptide_025 (human)
# T11 construct: 15-mer of hTrx1 on microarray
# T11 peptide: KTAFQEALDAAGDKL
# T12: Peptide_045 (human)
# T12 construct: 15-mer of hTrx1 on microarray
# T12 peptide: SATWCGPCKMIKPFF
# T13: Peptide_051 (human)
# T13 construct: 15-mer of hTrx1 on microarray
# T13 peptide: PCKMIKPFFHSLSEK
# T14: Peptide_084 (human)
# T14 construct: 15-mer of hTrx1 on microarray
# T14 peptide: SECEVKCMPTFQFFK
# T15: Peptide_085 (human)
# T15 construct: 15-mer of hTrx1 on microarray
# T15 peptide: ECEVKCMPTFQFFKK
# T16: Peptide_092 (human)
# T16 construct: 15-mer of hTrx1 on microarray
# T16 peptide: PTFQFFKKGQKVGEF
# T17: Peptide_093 (human)
# T17 construct: 15-mer of hTrx1 on microarray
# T17 peptide: TFQFFKKGQKVGEFS
# T18: Peptide_094 (human)
# T18 construct: 15-mer of hTrx1 on microarray
# T18 peptide: FQFFKKGQKVGEFSG
# T19: Peptide_095 (human)
# T19 construct: 15-mer of hTrx1 on microarray
# T19 peptide: QFFKKGQKVGEFSGA
# Tests used:
# Assay in all cases: peptide microarray, 1 ug/mL
# Peptide_004 = target: T1, Peptide_004
# Method: (§1) 5, 1, 0.2, 0.04, 0.008 and 0.0016 μg/mL serial dilutions were incubated on a single multi-well microarray slide at 30° C. for 1 hour. The slide includes 21 individual mini-arrays (one mini-array per sample dilution).
# (§2) DyLight 650 was used as a label. False-positive binding to a peptide was evaluated by performing one additional control incubation in which only a secondary antibody was applied on the same microarray slide. Before performing each step, the microarrays were washed with a washing buffer.
# Peptide_005 = target: T2, Peptide_005
# Method: as §1, §2
# Peptide_012 = target: T3, Peptide_012
# Method: as §1, §2
# Peptide_013 = target: T4, Peptide_013
# Method: as §1, §2
# Peptide_014 = target: T5, Peptide_014
# Method: as §1, §2
# Peptide_015 = target: T6, Peptide_015
# Method: as §1, §2
# Peptide_020 = target: T7, Peptide_020
# Method: as §1, §2
# Peptide_021 = target: T8, Peptide_021
# Method: as §1, §2
# Peptide_023 = target: T9, Peptide_023
# Method: as §1, §2
# Peptide_024 = target: T10, Peptide_024
# Method: as §1, §2
# Peptide_025 = target: T11, Peptide_025
# Method: as §1, §2
# Peptide_045 = target: T12, Peptide_045
# Method: as §1, §2
# Peptide_051 = target: T13, Peptide_051
# Method: as §1, §2
# Peptide_084 = target: T14, Peptide_084
# Method: as §1, §2
# Peptide_085 = target: T15, Peptide_085
# Method: as §1, §2
# Peptide_092 = target: T16, Peptide_092
# Method: as §1, §2
# Peptide_093 = target: T17, Peptide_093
# Method: as §1, §2
# Peptide_094 = target: T18, Peptide_094
# Method: as §1, §2
# Peptide_095 = target: T19, Peptide_095
# Method: as §1, §2
signal (blank-control = 1) (Peptide_004),signal (blank-control = 1) (Peptide_005),signal (blank-control = 1) (Peptide_012),signal (blank-control = 1) (Peptide_013),signal (blank-control = 1) (Peptide_014),signal (blank-control = 1) (Peptide_015),signal (blank-control = 1) (Peptide_020),signal (blank-control = 1) (Peptide_021),signal (blank-control = 1) (Peptide_023),signal (blank-control = 1) (Peptide_024),signal (blank-control = 1) (Peptide_025),signal (blank-control = 1) (Peptide_045),signal (blank-control = 1) (Peptide_051),signal (blank-control = 1) (Peptide_084),signal (blank-control = 1) (Peptide_085),signal (blank-control = 1) (Peptide_092),signal (blank-control = 1) (Peptide_093),signal (blank-control = 1) (Peptide_094),signal (blank-control = 1) (Peptide_095),Binder
2.71,3.58,–,–,–,–,–,–,–,–,–,–,–,–,–,–,–,–,–,"monoclonal antibody B266-1 (antibody, human IgG1, B266 with the Fc part changed to human IgG1; also called B266-1 (Trx1-hIgG1); B266-1 (hTrx1-hIgG1)) light: QIVLTQSPAIMSASPGEKVTMTCSASSRISYMYWYQQKPGTSPKRWIYDTSKLASGVPARFSGSGSGTSYSLTISTMEAEDAATYYCHQRSSYPTFGAGTKLELKSVAAPSVFIFPPSDEQLKSGTASVVCLLNNFYPREAKVQWKVDNALQSGNSQESVTEQDSKDSTYSLSSTLTLSKADYEKHKVYACEVTHQGLSSPVTKSFNRGEC heavy: not shown"
–,–,3.65,4.05,6.71,5.11,2.3,2.48,1.19,6.5,7.24,5.11,3.91,3.26,3.56,9.76,5.33,3.26,3.52,"monoclonal antibody B264 (antibody, mouse IgG1, kappa, V domains shown, also called AB264; B264 (Trx1-mIgG1)) VH: QVQLQQSGAELARPGASVKMSCKASGYTFTSYTMHWVKQRPGQGLEWIGYINPTSDYTNYNQKFKDKATLTADKSSSTAYMQLSSLTSEDSAVYFCASEGGFLYYFDYWGQGTTLTVSS VL: DVLMTQTPLSLPVSLGDQASISCRSSQSIVHSNGNTYLEWYLQKPGQSPKLLIYKVSNRFSGVPDRFSGSGSGTDFTLKISRVEAEDLGVYYCFQGSHVPYTFGGGTKLEIKR"
